Values of other authors in article PMC10947368.

Experiments:
IL-2Rα (Homo sapiens) = IL-2Rα (Homo sapiens) (UniProt P01589)
[1] = biological target: IL-2Rβ/γc heterodimeric receptor (Homo sapiens) (UniProt P14784)
Sequence of UniProt P14784 (P14784 27-240, chain 1 of 2): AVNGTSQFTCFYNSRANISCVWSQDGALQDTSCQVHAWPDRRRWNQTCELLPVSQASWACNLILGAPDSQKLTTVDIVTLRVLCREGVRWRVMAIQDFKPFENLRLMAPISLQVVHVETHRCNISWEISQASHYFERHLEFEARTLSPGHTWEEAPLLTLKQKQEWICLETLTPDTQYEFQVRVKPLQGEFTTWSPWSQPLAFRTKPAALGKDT
Sequence of UniProt P14784 (P31785 23-262, chain 2 of 2, further chain): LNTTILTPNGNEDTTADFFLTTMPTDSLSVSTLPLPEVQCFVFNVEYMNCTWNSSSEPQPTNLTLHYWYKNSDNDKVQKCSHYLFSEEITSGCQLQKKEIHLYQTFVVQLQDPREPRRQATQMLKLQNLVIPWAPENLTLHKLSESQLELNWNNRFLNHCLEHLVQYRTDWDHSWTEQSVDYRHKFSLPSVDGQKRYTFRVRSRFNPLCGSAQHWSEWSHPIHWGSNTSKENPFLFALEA

Sequence of UniProt P01589 (P01589 22-240): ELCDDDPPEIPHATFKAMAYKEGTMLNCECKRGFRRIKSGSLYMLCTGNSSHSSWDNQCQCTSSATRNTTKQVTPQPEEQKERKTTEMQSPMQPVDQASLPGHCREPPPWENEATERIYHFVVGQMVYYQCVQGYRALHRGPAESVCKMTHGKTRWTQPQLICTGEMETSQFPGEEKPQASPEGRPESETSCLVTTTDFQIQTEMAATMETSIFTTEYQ

## Interleukin-2 (from UniProt P60568)
IL-2Rα (Homo sapiens)
  Kd: 10 nM
[1]
  Kd: 1 nM
